For 2 molecules, neutralization titer of HIV primary isolate (lectin and neutralization titer of HIV primary isolate results are on record in US20150050309A1.

Assay in all cases: cell-based or functional assay
Test [1] addresses HIV Env of primary isolate DU422 (HIV).
In test [2] the target is HIV Env of primary isolate SF162 (HIV).
Test [3] addresses HIV Env of primary isolate TV-1 (HIV).
Test [4] deals with HIV Env of primary isolate DU123 (HIV).
Test [5] addresses HIV Env of primary isolate BG1168 (HIV).
For test [6], the target named is HIV Env of primary isolate 6101 (HIV).

B1: galanthus nivalis lectin (protein, UniProt P30617 24-128, looked up)
chain: DNILYSGETLSTGEFLNYGSFVFIMQEDCNLVLYDVDKPIWATNTGGLSRSCFLSMQTDGNLVVYNPSNKPIWASNTGGQNGNYVCILQKDRNVVIYGTDRWATG
On to B1, for which the neutralization titer of HIV primary isolate (lectin at 400 ug/ml) was above 43700 titer in test [1]; 22400 titer in test [2]; above 43700 titer in test [3]; above 43700 titer in test [4]; below 20 titer in test [5]; 724 titer in test [6].

B2: urtica diotica (UDA) lectin (protein, UniProt P11218 24-112, looked up)
chain: QRCGSQGGGGTCPALWCCSIWGWCGDSEPYCGRTCENKCWSGERSDHRCGAAVGNPPCGQDRCCSVHGWCGGGNDYCSGSKCQYRCSSS
With B2, the neutralization titer of HIV primary isolate in test [1] was 468 titer; in test [2] it was 467 titer; in test [3], 600 titer; in test [4] it was 1580 titer; in test [5], 190 titer; in test [6] it was 428 titer.
